Drawing on the RNAGym collection of RNA variant scans (doi:10.7554/elife.80360), this text covers self-cleavage for 167 variants.

B1: Twister Ribozyme (parent)
chain: AACACUGCCAAUGCCGGUCCCAAGCCCGGAUAAAAGUGGAGGGGGCGG

The data set covers variants of B1. Nature of the data set: self-cleavage, relative activity (ratio to wild type); higher = more cleavage; co-transcriptional.
On to U18A C25A, for which the self-cleavage was found to be 0.0777.
The figure for C5A U18C is 0.106; for C8G G39C it is 0.135; for G17U G29A it is 0.118.
On to A10U G36U, for which the self-cleavage came out at 0.716.
For the variant G16U G45U, the self-cleavage amounted to 0.819.
As to C5G C9G, the self-cleavage worked out at 0.125.
Take G17C C27U: the self-cleavage is 0.0804.
With A30U C46U, the self-cleavage worked out at 0.968.
Then C3G A23G, with 0.106; and G7C G16C, with 0.13; and U6C G42C, with 0.11.
Then A1G C20U, with 0.35; and A11C G24A, with 0.0913.
Then C5A G7C, with 0.0608; and A32C A33C, with 0.767; and C15A C46A, with 0.565.
In the case of U31A G44U, the self-cleavage was found to be 0.83.
Then A22G U37A, with 0.152; and A22C A30U, with 1.
The figure for A35C G42U is 0.415; for A1U A34U it is 0.0731.
The figure for C26G G45U is 0.156.
On to G7U A35G, for which the self-cleavage was 0.0839.
Then C5U G48C, with 0.883; and U12C G44U, with 0.902; and C9U G39C, with 0.151.
Regarding A2C G38U, the self-cleavage amounted to 0.0613.
The figure for C19A G28A is 0.184; for A2G U37A it is 0.142; for G13C C20A it is 0.0483.
Regarding G17A G41C, the self-cleavage worked out at 0.164.
Then C3A U6A, with 0.0998; and C5U C15G, with 0.0698; and C27U A32C, with 0.755.
The figure for C9U C21U is 0.0907.
The figure for C5A G16U is 0.237; for A2G G16A it is 0.208; for G29C A35C it is 0.701.
On to C3U C8G, for which the self-cleavage amounted to 0.0577.
As for U6G A30U, the self-cleavage was 0.687.
Turning to C5A C21A, the self-cleavage came out at 0.0272.
The figure for C3A C27G is 0.0917.
The figure for C8G U31A is 0.472; for G13C G48C it is 0.249; for C9G A35G it is 0.591.
The figure for A23G G29U is 0.425.
As for C8G A10U, the self-cleavage is 0.429.
Regarding A33C G38U, the self-cleavage was found to be 0.72.
The figure for C15A C27G is 0.0735.
Consider A4C C15G, for which the self-cleavage was 0.0431.
Take A11G C26A: the self-cleavage amounted to 0.187.
For G29U G45A, the self-cleavage is 0.812.
Then A35G U37G, with 0.585; and A10G G48U, with 1.15.
As for A23G G45C, the self-cleavage is 0.181.
Then A35C G41A, with 0.611.
Turning to C27U G48C, the self-cleavage amounted to 0.844.
C9G G13A: the self-cleavage was 1.07.
For the variant C15A A35G, the self-cleavage worked out at 0.285.
Then A23C C27G, with 0.0848; and C5U G16C, with 0.159; and G7U C46A, with 0.0526.
The figure for C19A A23G is 0.0964; for G7A G39A it is 0.171.
The figure for C5U A10C is 1.06; for G38C G42A it is 0.229.
With C27G G29C, the self-cleavage turned out to be 0.0656.
Then C8A G36A, with 0.101; and A10G G42U, with 0.493.
The figure for C8U C15U is 0.768.
The figure for A11C C26U is 0.137; for U12A C20U it is 1.15.
For C9G G44C, the self-cleavage stood at 0.395.
Then A34C G47A, with 0.122.
On to G13U G17A, for which the self-cleavage was 0.078.
The figure for U6C G17C is 0.0484.
Then A30G G42C, with 0.571; and C26G A40C, with 0.113.
For G17A A34U, the self-cleavage turned out to be 0.137.
G7A G44C: the self-cleavage was 0.322.
Then C9G G43A, with 0.123.
On to G16A G28C, for which the self-cleavage is 0.489.
The figure for C27G A32U is 0.115; for C26G U37A it is 0.126.
The figure for A40C G45A is 0.23; for A1G A4G it is 0.237; for A40G G48U it is 0.131.
Take A32G G39C: the self-cleavage came to 0.155.
Then A32G G39U, with 0.158.
Then G41C G42U, with 0.167.
Then G13U A30C, with 0.665; and C25U G44U, with 0.809; and A10G G47C, with 0.809.
With G7U G45A, the self-cleavage stood at 0.0748.
Then A34U G44C, with 0.766.
For the variant U18G, the self-cleavage was found to be 0.0785.
Take C27A A33U: the self-cleavage stood at 0.334.
Consider C3G G45A, for which the self-cleavage came out at 0.479.
For A4C U18C, the self-cleavage turned out to be 0.0605.
Regarding A11C G48A, the self-cleavage is 0.998.
Take C3U G47C: the self-cleavage was 0.233.
Then A33U C46G, with 0.921.
On to C9A C25U, for which the self-cleavage was found to be 0.185.
Then A11U C21U, with 0.0941.
With A1U A33G, the self-cleavage amounted to 0.0708.
The figure for G13C G42A is 0.12; for G7C C27G it is 0.073; for A2U G17C it is 0.0754.
Then C8A G41A, with 0.175; and G7C G29A, with 0.0857; and U31A G39C, with 0.151.
Then A1G C46G, with 0.428; and A23C A33G, with 0.0917.
On to U6G G48A, for which the self-cleavage was 0.24.
Then A1U G39U, with 0.0746; and G13U U18G, with 0.0548.
As to U18C G38U, the self-cleavage was 0.261.
The figure for A11U C26G is 0.31.
With G7U U31A, the self-cleavage came out at 0.133.
Then C14G A23U, with 0.0448.
As for A11U A40G, the self-cleavage was found to be 0.0881.
As for A10G A34C, the self-cleavage came out at 0.498.
The figure for G16C A33G is 0.403; for G42U G45C it is 0.203.
Then A4U A11U, with 0.193; and C5G G36A, with 0.732; and C5G G29A, with 0.458.
For C19A U37A, the self-cleavage is 0.0721.
Take U31A G45C: the self-cleavage worked out at 0.347.
Take G36C G43C: the self-cleavage stood at 0.0794.
Then U6A G17C, with 0.0763; and C14G G29C, with 0.228.
In the case of C26U C46A, the self-cleavage was 0.207.
On to A4C C20A, for which the self-cleavage was found to be 0.0653.
For C3A G36C, the self-cleavage was 0.0352.
Then G36C G39U, with 0.128; and A40U G44U, with 0.183.
Regarding C9A G39U, the self-cleavage was 0.131.
As to C20A A32G, the self-cleavage is 0.145.
Consider C3U C46U, for which the self-cleavage was determined as 0.503.
Then G17A G24A, with 0.118.
For the variant A33U U37G, the self-cleavage amounted to 0.591.
As to A10G G44A, the self-cleavage amounted to 0.881.
In the case of U18G A30C, the self-cleavage came to 0.14.
Regarding C19G C46U, the self-cleavage was found to be 0.359.
The figure for C21U G39U is 0.0656.
For the variant C9G G45C, the self-cleavage turned out to be 0.171.
The figure for U12G A34C is 0.287.
On to U37A G43C, for which the self-cleavage amounted to 0.149.
Then G13A C46A, with 0.715; and U12G G29A, with 0.622; and C8A G43A, with 0.177.
Take A1C U12G: the self-cleavage came out at 0.143.
Regarding G13C C26U, the self-cleavage came out at 0.0884.
The figure for U18G G42A is 0.0696.
With A32G G47A, the self-cleavage was determined as 0.924.
As to U6G C15G, the self-cleavage worked out at 0.0391.
Then C21U A22C, with 0.0923; and C3G U18C, with 0.147.
Turning to G28A A40U, the self-cleavage amounted to 0.125.
Take A35G G36U: the self-cleavage is 0.765.
Consider G28A G48U, for which the self-cleavage was found to be 0.778.
As to A1C G45U, the self-cleavage came to 0.22.
Take A33C G39C: the self-cleavage was 0.12.
As for G39C G47U, the self-cleavage worked out at 0.163.
The figure for C27U G38C is 0.644.
